Test results published in patent US6989362B1, “Methods of treating dopamine dysregulation using agents that regulate phosphorylation/dephosphorylation in dopamine signaling” (The Rockefeller University, priority 1999, dated 2006).

Target: PKA (Homo sapiens, UniProt P17612)
Assay: Inhibition of PKA phosphorylation of substrates in vitro (kinetic analysis)
Type: biochemical
Method: Tissue was processed as described in the legend to FIGS. 1a-1e and immunoblotted for phospho-Thr75 (FIG. 2a), total DARPP-32 (FIG. 2b), or phospho-Thr34 (FIG. 2c). […] Purified DARPP-32 was phosphorylated to a stoichiometry of 0.93 mol/mol using native cdk1/cyclin B purified from sea star. Phospho-Thr75 DARPP-32 was precipitated from the reaction mixture with 5% TCA, resuspended in 1M Tris-HCl (pH 8.8), and dialyzed against 10 mM HEPES (pH 7.4). […] FIG. 2g depicts a Lineweaver-Burki kinetic analysis of PKA phosphorylation of ARPP-21 in the presence of 0 (◯), 5 (□), 10 (⋄), or 15 (Δ) μM Phospho-Thr75 DARPP-32.

B1: phospho-Thr75 DARPP-32: the phosphorylated form of Thr75 DARPP-32; inhibitor of PKA (protein, listed as Homo sapiens)
chain: MDPKDRKKIQFSVPAPPSQLDPRQVEMIRRRRPTPAMLFRLSEHSSPEEEASPHQRASGEGHHLKSKRPNPCAYTPPSLKAVQRIAESHLQSISNLNENQASEEEDELGELRELGYPREEDEEEEEDDEEEEEEEDSQAEVLKVIRQSAGQKTTRGLGLEGPWERPPPLDESERDGGSEDQVEDPALSEPGEEPQRPSPSEPGR
modifications: phosphorylated Thr75
15 μM phospho-Thr75 DARPP-32, purified catalytic subunit of PKA
  rates of phosphorylation by PKA of inhibitor-1, ARPP-21, synapsin I and histone H1: dramatic reduction
ARPP-21 phosphorylation, 0-15 μM inhibitor
  mechanism of PKA inhibition: linear competitive single site mechanism
